Experimental data reported in the RNAGym collection of RNA variant scans (doi:10.1093/molbev/msab373).

B1: Azoarcus group I ribozyme (parent)
chain: GUGCCUUGCGCCGGGAAACCACGCAAGGGAUGGUGUCAAAUUCGGCGAAACCUAAGCGCCCGCCCGGGCGUAUGGCAACGCCGAGCCAAGCUUCGGCGCCUGCGCCGAUGAAGGUGUAGAGACUAGACGGCACCCACCUAAGGCAAACGCUAUGGUGAAGGCAUAGUCCAGGGAGUGGCGAAAGUCACACAAACCGG

Variants of: B1
Test: reverse-splicing fitness (ratio to wild type); higher = more active; in vitro selection; Mg2+ level not given
Method in brief: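 An in vitro group I ribozyme library with randomized positions was T7-transcribed and gel-purified. In triplicate, 10 pmol RNA in EPPS pH 7.5 was reacted with 50 pmoles of a 30-nt RNA substrate for 1 h at 37 °C across several added MgCl2 levels (1–48 mM), then stopped with EDTA. Products were reverse transcribed from a substrate-complementary primer, PCR-amplified and sequenced (HiSeq 4000). Fitness is a variant's read proportion after selection over that before, normalised to wild type.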

Going from A111C A120G A145U C150U C169A U176C to A111C A120G A145C C169U, the reverse-splicing fitness rises from 0.0175 to 0.146.

Compared with A111C A120U A145C C150G C169A U176C, A111C A120U A145C C150G C169A U176G is lower in reverse-splicing fitness: 0.00297 for the first, 0.00224 for the second.

Compared with A111C A120U A145C C150G C169A U176A, A111C A120G A145U C150G U176G is higher in reverse-splicing fitness: 0.00246 for the first, 0.00305 for the second.

First: A111C A120G A145U C150G U176A
Second: A111C A120G A145U C150G U176C
The reverse-splicing fitness of the first is lower: 0.00983 for the first, 0.0169 for the second.

Going from A111C A120U A145C C150A U176A to A111C A120U A145C C150A U176G, the reverse-splicing fitness falls from 0.016 to 0.00735.

Compared with A111C A120U A145C C150A U176C, A111C A120U is higher in reverse-splicing fitness: 0.0101 for the first, 0.659 for the second.

Going from A111C A120U A145C C150G U176G to A111C A120U A145C C150G U176A, the reverse-splicing fitness rises from 0.00459 to 0.0207.

Going from A111C A120U A145C C150G U176C to A111C A120U A145C C169U U176A, the reverse-splicing fitness falls from 0.0215 to 0.0108.

Going from A111C A120U A145C C169U U176G to A111C A120U A145C C169U U176C, the reverse-splicing fitness rises from 0.00215 to 0.0145.

Compared with A111C A120G A145U C150G C169G U176C, A111C A120G A145U C150G C169G U176A is higher in reverse-splicing fitness: 0.00574 for the first, 0.00713 for the second.

Compared with A111C A120G A145U C150G C169G U176G, A111C A120U A145C C150U U176A is higher in reverse-splicing fitness: 0.00412 for the first, 0.0649 for the second.

Compared with A111C A120U A145C C150U U176C, A111C A120U A145C C150U U176G is lower in reverse-splicing fitness: 0.0487 for the first, 0.0246 for the second.

Going from A111C A120G A145C U176G to A111C A120G A145C U176A, the reverse-splicing fitness rises from 0.00548 to 0.0323.

Compared with A111C A120G A145C U176C, A111C A120G A145G C169G U176C is higher in reverse-splicing fitness: 0.0361 for the first, 0.0552 for the second.

Going from A111C A120G A145G C169G U176A to A111C A120G A145G C169G U176G, the reverse-splicing fitness falls from 0.036 to 0.00512.

Going from A111C A120G C150U C169G to A111C A120G C150U C169A, the reverse-splicing fitness falls from 0.112 to 0.0604.

First: A111C A120G C150U C169U
Second: A111C A120U A145C C150U C169U U176G
The reverse-splicing fitness of the first is higher: 0.0919 for the first, 0.00251 for the second.

Going from A111C A120U A145C C150U C169U U176A to A111C A120U A145C C150U C169U U176C, the reverse-splicing fitness falls from 0.00478 to 0.00414.

Going from A111C A120G A145G C150U C169G U176G to A111C A120G A145G C150U C169G U176A, the reverse-splicing fitness rises from 0.00471 to 0.0243.

Going from A111C A120G A145G C150U C169G U176C to A111C A120G A145G C150A C169U U176A, the reverse-splicing fitness falls from 0.035 to 0.0227.

Compared with A111C A120G A145G C150A C169U U176C, A111C A120G A145G C150A C169U U176G is lower in reverse-splicing fitness: 0.0241 for the first, 0.00466 for the second.

First: A111C A120G A145U C150A
Second: A111C A120G A145U C150G
The reverse-splicing fitness of the first is lower: 0.0185 for the first, 0.0193 for the second.

Going from A111C A120G A145U C150U to A111C A120G A145U U176G, the reverse-splicing fitness falls from 0.113 to 0.00568.

Going from A111C A120G A145U U176C to A111C A120G A145U U176A, the reverse-splicing fitness falls from 0.0406 to 0.0392.

Going from A111C A120G A145G C150G C169G U176A to A111C A120G A145G C150G C169G U176C, the reverse-splicing fitness rises from 0.0101 to 0.0114.

First: A111C A120G A145G C150G C169G U176G
Second: A111C A120G A145U C150U C169G U176G
The reverse-splicing fitness of the first is higher: 0.00543 for the first, 0.00542 for the second.

Compared with A111C A120G A145U C150U C169G U176C, A111C A120G A145U C150U C169G U176A is lower in reverse-splicing fitness: 0.0326 for the first, 0.0211 for the second.

Going from A111C A120G A145G C150G C169A U176A to A111C A120G A145G C150G C169A U176C, the reverse-splicing fitness rises from 0.0128 to 0.0131.

First: A111C A120G A145G C150G C169A U176G
Second: A111C A120U A145G C150A C169G U176C
The reverse-splicing fitness of the first is higher: 0.00703 for the first, 0.00682 for the second.

First: A111C A120U A145G C150A C169G U176G
Second: A111C A120U A145G C150A C169G U176A
The reverse-splicing fitness of the first is lower: 0.00255 for the first, 0.00653 for the second.

First: A111C A120G C150A C169A U176G
Second: A111C A120G C150A C169A U176A
The reverse-splicing fitness of the first is lower: 0.00594 for the first, 0.0174 for the second.

Going from A111C A120G C150A C169A U176C to A111C A120U A145C C150U C169A U176G, the reverse-splicing fitness falls from 0.023 to 0.00188.

Compared with A111C A120U A145C C150U C169A U176C, A111C A120U A145C C150U C169A U176A is higher in reverse-splicing fitness: 0.00249 for the first, 0.00274 for the second.

Compared with A111C A120G A145G C169U, A111C A120G A145G C169A is lower in reverse-splicing fitness: 0.167 for the first, 0.123 for the second.

First: A111C A120G A145G C169G
Second: A111C A120G A145G C169A U176C
The reverse-splicing fitness of the first is higher: 0.227 for the first, 0.0401 for the second.

Going from A111C A120G A145G C169A U176G to A111C A120G A145G C169A U176A, the reverse-splicing fitness rises from 0.00458 to 0.0264.

First: A111C A120G A145G C150U C169A
Second: A111C A120G A145G C150U C169G
The reverse-splicing fitness of the first is lower: 0.0989 for the first, 0.167 for the second.

Compared with A111C A120G A145G C150U C169U, A111C A120U A145G C169U U176G is lower in reverse-splicing fitness: 0.139 for the first, 0.00322 for the second.

Compared with A111C A120U A145G C169U U176A, A111C A120U A145G C169U U176C is higher in reverse-splicing fitness: 0.0138 for the first, 0.0232 for the second.

Going from A111C A120G C150U C169G U176A to A111C A120G C150U C169G U176G, the reverse-splicing fitness falls from 0.0233 to 0.00581.

Compared with A111C A120G C150U C169G U176C, A111C A120G U176A is higher in reverse-splicing fitness: 0.0349 for the first, 0.0401 for the second.

First: A111C A120G U176C
Second: A111C A120G U176G
The reverse-splicing fitness of the first is higher: 0.0417 for the first, 0.00629 for the second.
